Data reported in patent US20230174651A1 (Janssen / Centocor, published 2023).
Values belong to the binder of their own block, whether it stands above or below them.

Key:
[1] = target: T1, CAR with CD8α hinge as the spacer, expressed on Jurkat CAR-T cells; assay: flow cytometry (iQue) on Jurkat CAR-T cells, A647 anti-human IgG Fc detection
T1 construct: domain: CD8α hinge; also called CD8α hinge expressed on the Jurkat CAR-T cells
Experimental: mAbs were 1:3 serially diluted ranging from 100 nM to 1.7 pM and were incubated with cell mixture containing Jurkat CAR-T cells (unstained), Jurkat cells (CTV dye stained) and Sup-T1 cells (CSFE dye stained) in assay media (RPMI 1640+10% HI FBS+Pen/strep) for 1 hr at 37° C. […] Cells were then washed and analyzed by iQue screener (Intellicyt®). ForeCyt software was used for data analysis. The ratio of geomean of AF647 fluorescent signal from sample over the isotype control antibody (Signal) was used for the dose-dependent plot (FIGS. 2A-2F).

[2] = target: T2, human CD8α on primary CD8+ T cells (human, UniProt P01732 22-235); assay: flow cytometry on PBMC, 2 µg/mL mAb, positive cells among CD8+ T cells, Donor 1
T2 construct: Endogenous CD8 on T cells from PBMC; also called CD8+ primary T cells; human primary CD8+ cells
T2 sequence (P01732 22-235): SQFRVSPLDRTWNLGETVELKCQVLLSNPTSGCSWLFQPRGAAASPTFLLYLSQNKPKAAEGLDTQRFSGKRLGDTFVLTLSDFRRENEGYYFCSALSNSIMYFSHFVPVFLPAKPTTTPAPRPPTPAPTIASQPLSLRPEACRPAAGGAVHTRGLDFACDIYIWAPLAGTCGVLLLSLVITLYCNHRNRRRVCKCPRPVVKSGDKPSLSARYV
Experimental: (§1) Frozen PBMCs were thawed and resuspended in FACS buffer (PBS+2% FBS). Cells were then incubated with Fc block for 15 min at 4 C prior to incubation with 2 μg/mL of each CD8α hinge binders at room temperature for 45 min. […] After staining, cells were washed with FACS buffer twice and resuspended in 100 μl PBS containing DAPI for acquisition. Cells were first gated on FSC/SSC, followed by live cell gating (DAPI negative cells) followed by singlet gating. CD3 T cells were identified using FSC versus CD3 dot plot. Within the CD3 T cells, CD4 and CD8 T cells were gated. Naïve, Effector, EM and CM cells were identified within the CD8 T cells using CD45RA and CD27 dot plot. Within each of the cell types, the secondary only control was used to set the gates to identify the positive stained population. The percentage of positive cells in CD8+ T cell population with binding to CD8α hinge binders were quantified and summarized in Table 13.

[3] = target: T2, human CD8α on primary CD8+ T cells; assay: flow cytometry on PBMC, 2 µg/mL mAb, positive cells among CD8+ T cells, Donor 2
Experimental: as §1

[4] = target: T2, human CD8α on primary CD8+ T cells; assay: flow cytometry on PBMC, 2 µg/mL mAb, positive cells among EM CD8 T cells, Donor 1
Experimental: as §1

[5] = target: T2, human CD8α on primary CD8+ T cells; assay: flow cytometry on PBMC, 2 µg/mL mAb, positive cells among EM CD8 T cells, Donor 2
Experimental: as §1

[6] = target: T2, human CD8α on primary CD8+ T cells; assay: flow cytometry on PBMC, 2 µg/mL mAb, positive cells among EMRA CD8 T cells, Donor 1
Experimental: as §1

[7] = target: T2, human CD8α on primary CD8+ T cells; assay: flow cytometry on PBMC, 2 µg/mL mAb, positive cells among EMRA CD8 T cells, Donor 2
Experimental: as §1

T1 sequence (P01732 138-182): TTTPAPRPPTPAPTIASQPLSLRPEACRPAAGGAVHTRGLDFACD

B1: CD8B617 (antibody, human IgG1, kappa)
heavy: not shown
light: DIQMTQSPLTLSVTIGQPASISCKSSQSLLDSDGETYLNWLLQRPGQSPKRLIYLVSKLDSGVPDRFTGSGSGTDFTLKISRVEAEDLGVYYCWQGTHFPLTFGGGTKLEIKRTVAAPSVFIFPPSDEQLKSGTASVVCLLNNFYPREAKVQWKVDNALQSGNSQESVTEQDSKDSTYSLSSTLTLSKADYEKHKVYACEVTHQGLSSPVTKSFNRGEC
notes: Mouse variable regions on human IgG1 / human kappa constant regions
- EC50 [1]: 23.7 nM
- Binding in CD8+ cells (%) [2]: 88.5%
- Binding in CD8+ cells (%) [3]: 97.8%
- Binding+ in EM (%) [4]: 86.2%
- Binding+ in EM (%) [5]: 89.1%
- Binding+ in EMRA (%) [6]: 90.3%
- Binding+ in EMRA (%) [7]: 97.3%

B2: CD8B611 (antibody, human IgG1, kappa, V domains shown)
VH: EVQLQQSGAELVRPGASVNLSCTASGFNFKDDYMHWVKQRPEQGLEWIGWIDPENGDAAYASKFQGKATITADTSSNTAYLQLSSLTSEDTAVYYCITIFRSYWGQGTTLTVSS
VL: not shown
notes: as for B1
- EC50 [1]: 21.6 nM
- Binding in CD8+ cells (%) [2]: 88.8%
- Binding in CD8+ cells (%) [3]: 98.2%
- Binding+ in EM (%) [4]: 88.5%
- Binding+ in EM (%) [5]: 91.5%
- Binding+ in EMRA (%) [6]: 91%
- Binding+ in EMRA (%) [7]: 97.8%

B3: CD8B607 (antibody, human IgG1, kappa)
heavy: not shown
light: DIQMTQTPLTLSVTIGQPASISCKSSQSLLDSDGETYLNWLLQRPGQSPKRLIYLVSKLDSGVPDRFTGSGSGTDFTLKISRVEAEDLGVYYCWQGTHFPLTFGGGTKLEIKRTVAAPSVFIFPPSDEQLKSGTASVVCLLNNFYPREAKVQWKVDNALQSGNSQESVTEQDSKDSTYSLSSTLTLSKADYEKHKVYACEVTHQGLSSPVTKSFNRGEC
notes: as for B1
- EC50 [1]: 24.7 nM
- Binding in CD8+ cells (%) [2]: 87.5%
- Binding in CD8+ cells (%) [3]: 97.7%
- Binding+ in EM (%) [4]: 82.8%
- Binding+ in EM (%) [5]: 87.4%
- Binding+ in EMRA (%) [6]: 87.9%
- Binding+ in EMRA (%) [7]: 97.1%

B5: CD8B622 (antibody, human IgG1, kappa)
heavy: not shown
light: DIVMTQTPLSLPVSLGDQASISCRSSQNIVHSNGNTYLEWYLQKPGQSPKLLIYRVSKRFSGVPDRFSGSGSGTDFTLKITRVEAEDLGVYYCFQGSHVPWTFGGGTKLEIKRTVAAPSVFIFPPSDEQLKSGTASVVCLLNNFYPREAKVQWKVDNALQSGNSQESVTEQDSKDSTYSLSSTLTLSKADYEKHKVYACEVTHQGLSSPVTKSFNRGEC
notes: Mouse variable regions on human IgG1 / human kappa constant regions; also called CD8B622.001
- EC50 [1]: 37 nM
- Binding in CD8+ cells (%) [2]: 63.1%
- Binding in CD8+ cells (%) [3]: 16.7%
- Binding+ in EM (%) [4]: 50.4%
- Binding+ in EM (%) [5]: 50.3%
- Binding+ in EMRA (%) [6]: 60.6%
- Binding+ in EMRA (%) [7]: 4.25%

The next binders have a lower EC50 [1] than those just listed; values first:

- EC50 [1]: 1.9 nM
- Binding in CD8+ cells (%) [2]: 73.8%
- Binding in CD8+ cells (%) [3]: 28.1%
- Binding+ in EM (%) [4]: 70.5%
- Binding+ in EM (%) [5]: 75.9%
- Binding+ in EMRA (%) [6]: 72%
- Binding+ in EMRA (%) [7]: 8.76%
B4: CD8B613 (antibody, human IgG1, kappa)
heavy: not shown
light: DVQMIQSPLSLPVSLGDQASISCRSSQNIVHSNGNTYLEWYLQKPGQSPKLLIYRVSKRFSGVPDRFSGSGSGTDFTLKITRVEAEDLGVYYCFQGSHVPWTFGGGTKLEIKRTVAAPSVFIFPPSDEQLKSGTASVVCLLNNFYPREAKVQWKVDNALQSGNSQESVTEQDSKDSTYSLSSTLTLSKADYEKHKVYACEVTHQGLSSPVTKSFNRGEC
notes: as for B1

- EC50 [1]: 7.8 nM
- Binding in CD8+ cells (%) [2]: 65.3%
- Binding in CD8+ cells (%) [3]: 19.5%
- Binding+ in EM (%) [4]: 56.5%
- Binding+ in EM (%) [5]: 60.6%
- Binding+ in EMRA (%) [6]: 63.3%
- Binding+ in EMRA (%) [7]: 5.38%
B6: CD8B623 (antibody, human IgG1, kappa)
heavy: not shown
light: DVVMTQTPLSLPVSLGDQASISCRSSQNIVHSNGNTYLEWYLQKPGQSPKLLIYRVSKRFSGVPDRFSGSGSGTDFTLKITRVEAEDLGVYYCFQGSHVPWTFGGGTKLEIKRTVAAPSVFIFPPSDEQLKSGTASVVCLLNNFYPREAKVQWKVDNALQSGNSQESVTEQDSKDSTYSLSSTLTLSKADYEKHKVYACEVTHQGLSSPVTKSFNRGEC
notes: as for B1
